According to the Human Domainome abundance scans (Beltran et al. 2025):
± gives the uncertainty stated by the source.

B1: Bromodomain adjacent to zinc finger domain protein 2B, residues 1927 to 1982; numbered along this chain, Q9UIF8 (parent)
chain: KSIMKVYCQICRKGDNEELLLLCDGCDKGCHTYCHRPKITTIPDGDWFCPACIAKA

Variants of: B1
Assay: abundance fitness (aPCA) (normalised: wild type 0, dead -1); higher = more abundant; growth selection in yeast, the domain comes from the species named
Conditions: Homo sapiens

KSIMKVYCQIARKGDNEELLLLCDGCDKGCHTYCHRPKITTIPDGDWFCPACIAKA [C11A] and KSIMKVYCQIFRKGDNEELLLLCDGCDKGCHTYCHRPKITTIPDGDWFCPACIAKA [C11F] are within error of each other in abundance fitness: -1.03 ± 0.088 for the first, -0.961 ± 0.17 for the second.

KSIMKVYCQIGRKGDNEELLLLCDGCDKGCHTYCHRPKITTIPDGDWFCPACIAKA [C11G] and KSIMKVYCQIHRKGDNEELLLLCDGCDKGCHTYCHRPKITTIPDGDWFCPACIAKA [C11H] are within error of each other in abundance fitness: -1.1 ± 0.081 for the first, -0.85 ± 0.28 for the second.

KSIMKVYCQIDRKGDNEELLLLCDGCDKGCHTYCHRPKITTIPDGDWFCPACIAKA [C11D] and KSIMKVYCQIKRKGDNEELLLLCDGCDKGCHTYCHRPKITTIPDGDWFCPACIAKA [C11K] are within error of each other in abundance fitness: -1.05 ± 0.15 for the first, -0.887 ± 0.21 for the second.

KSIMKVYCQIIRKGDNEELLLLCDGCDKGCHTYCHRPKITTIPDGDWFCPACIAKA [C11I] and KSIMKVYCQIERKGDNEELLLLCDGCDKGCHTYCHRPKITTIPDGDWFCPACIAKA [C11E] are within error of each other in abundance fitness: -0.912 ± 0.15 for the first, -0.808 ± 0.12 for the second.

KSIMKVYCQQCRKGDNEELLLLCDGCDKGCHTYCHRPKITTIPDGDWFCPACIAKA [I10Q] and KSIMKVYCQTCRKGDNEELLLLCDGCDKGCHTYCHRPKITTIPDGDWFCPACIAKA [I10T] are within error of each other in abundance fitness: -0.009 ± 0.11 for the first, -0.01 ± 0.13 for the second.

KSIMKVYCQYCRKGDNEELLLLCDGCDKGCHTYCHRPKITTIPDGDWFCPACIAKA [I10Y] and KSIMKVYCQSCRKGDNEELLLLCDGCDKGCHTYCHRPKITTIPDGDWFCPACIAKA [I10S] are within error of each other in abundance fitness: -0.135 ± 0.2 for the first, -0.055 ± 0.078 for the second.

Going from KSIMKVYCQKCRKGDNEELLLLCDGCDKGCHTYCHRPKITTIPDGDWFCPACIAKA [I10K] to KSIMKVYCQPCRKGDNEELLLLCDGCDKGCHTYCHRPKITTIPDGDWFCPACIAKA [I10P], the abundance fitness falls from -0.131 ± 0.13 to -0.479 ± 0.11.

KSIMKVYCQWCRKGDNEELLLLCDGCDKGCHTYCHRPKITTIPDGDWFCPACIAKA [I10W] and KSIMKVYCQLCRKGDNEELLLLCDGCDKGCHTYCHRPKITTIPDGDWFCPACIAKA [I10L] are within error of each other in abundance fitness: -0.03 ± 0.099 for the first, 0.004 ± 0.08 for the second.

First: KSIMKVYCQGCRKGDNEELLLLCDGCDKGCHTYCHRPKITTIPDGDWFCPACIAKA [I10G]
Second: KSIMKVYCQCCRKGDNEELLLLCDGCDKGCHTYCHRPKITTIPDGDWFCPACIAKA [I10C]
The abundance fitness of the first is lower: -0.148 ± 0.069 for the first, 0.089 ± 0.13 for the second.

KSIMKVYCQVCRKGDNEELLLLCDGCDKGCHTYCHRPKITTIPDGDWFCPACIAKA [I10V] and KSIMKVYCQMCRKGDNEELLLLCDGCDKGCHTYCHRPKITTIPDGDWFCPACIAKA [I10M] are within error of each other in abundance fitness: -0.051 ± 0.079 for the first, -0.047 ± 0.1 for the second.

First: KSIMKVYCQECRKGDNEELLLLCDGCDKGCHTYCHRPKITTIPDGDWFCPACIAKA [I10E]
Second: KSIMKVYCQFCRKGDNEELLLLCDGCDKGCHTYCHRPKITTIPDGDWFCPACIAKA [I10F]
The abundance fitness of the first is higher: 0.095 ± 0.087 for the first, -0.181 ± 0.18 for the second.

KSIMKVYCQNCRKGDNEELLLLCDGCDKGCHTYCHRPKITTIPDGDWFCPACIAKA [I10N] and KSIMKVYCQHCRKGDNEELLLLCDGCDKGCHTYCHRPKITTIPDGDWFCPACIAKA [I10H] are within error of each other in abundance fitness: 0.266 ± 0.17 for the first, 0.079 ± 0.18 for the second.

KSIMKVYYQICRKGDNEELLLLCDGCDKGCHTYCHRPKITTIPDGDWFCPACIAKA [C8Y] and KSIMKVYWQICRKGDNEELLLLCDGCDKGCHTYCHRPKITTIPDGDWFCPACIAKA [C8W] are within error of each other in abundance fitness: -0.942 ± 0.14 for the first, -1.17 ± 0.12 for the second.

Going from KSIMKVYRQICRKGDNEELLLLCDGCDKGCHTYCHRPKITTIPDGDWFCPACIAKA [C8R] to KSIMKVYQQICRKGDNEELLLLCDGCDKGCHTYCHRPKITTIPDGDWFCPACIAKA [C8Q], the abundance fitness rises from -1.08 ± 0.088 to -0.661 ± 0.22.

KSIMKVYTQICRKGDNEELLLLCDGCDKGCHTYCHRPKITTIPDGDWFCPACIAKA [C8T] and KSIMKVYSQICRKGDNEELLLLCDGCDKGCHTYCHRPKITTIPDGDWFCPACIAKA [C8S] are within error of each other in abundance fitness: -0.902 ± 0.19 for the first, -0.944 ± 0.11 for the second.

KSIMKVYCYICRKGDNEELLLLCDGCDKGCHTYCHRPKITTIPDGDWFCPACIAKA [Q9Y] and KSIMKVYCVICRKGDNEELLLLCDGCDKGCHTYCHRPKITTIPDGDWFCPACIAKA [Q9V] are within error of each other in abundance fitness: 0.029 ± 0.12 for the first, -0.149 ± 0.074 for the second.

Compared with KSIMKVYCSICRKGDNEELLLLCDGCDKGCHTYCHRPKITTIPDGDWFCPACIAKA [Q9S], KSIMKVYCWICRKGDNEELLLLCDGCDKGCHTYCHRPKITTIPDGDWFCPACIAKA [Q9W] is lower in abundance fitness: 0.07 ± 0.072 for the first, -0.203 ± 0.085 for the second.

KSIMKVYCNICRKGDNEELLLLCDGCDKGCHTYCHRPKITTIPDGDWFCPACIAKA [Q9N] and KSIMKVYCRICRKGDNEELLLLCDGCDKGCHTYCHRPKITTIPDGDWFCPACIAKA [Q9R] are within error of each other in abundance fitness: -0.041 ± 0.12 for the first, -0.195 ± 0.063 for the second.

KSIMKVYCIICRKGDNEELLLLCDGCDKGCHTYCHRPKITTIPDGDWFCPACIAKA [Q9I] and KSIMKVYCMICRKGDNEELLLLCDGCDKGCHTYCHRPKITTIPDGDWFCPACIAKA [Q9M] are within error of each other in abundance fitness: -0.164 ± 0.11 for the first, -0.096 ± 0.14 for the second.

KSIMKVYCCICRKGDNEELLLLCDGCDKGCHTYCHRPKITTIPDGDWFCPACIAKA [Q9C] and KSIMKVYCDICRKGDNEELLLLCDGCDKGCHTYCHRPKITTIPDGDWFCPACIAKA [Q9D] are within error of each other in abundance fitness: -0.091 ± 0.094 for the first, 0.028 ± 0.12 for the second.

KSIMKVYCPICRKGDNEELLLLCDGCDKGCHTYCHRPKITTIPDGDWFCPACIAKA [Q9P] and KSIMKVYCLICRKGDNEELLLLCDGCDKGCHTYCHRPKITTIPDGDWFCPACIAKA [Q9L] are within error of each other in abundance fitness: 0.004 ± 0.11 for the first, -0.103 ± 0.077 for the second.

KSIMKVYCKICRKGDNEELLLLCDGCDKGCHTYCHRPKITTIPDGDWFCPACIAKA [Q9K] and KSIMKVYCTICRKGDNEELLLLCDGCDKGCHTYCHRPKITTIPDGDWFCPACIAKA [Q9T] are within error of each other in abundance fitness: -0.146 ± 0.13 for the first, -0.063 ± 0.092 for the second.

KSIMKVYCGICRKGDNEELLLLCDGCDKGCHTYCHRPKITTIPDGDWFCPACIAKA [Q9G] and KSIMKVYCFICRKGDNEELLLLCDGCDKGCHTYCHRPKITTIPDGDWFCPACIAKA [Q9F] are within error of each other in abundance fitness: -0.038 ± 0.059 for the first, -0.099 ± 0.15 for the second.

Variant KSIMKVYCAICRKGDNEELLLLCDGCDKGCHTYCHRPKITTIPDGDWFCPACIAKA [Q9A] has an abundance fitness of -0.108 ± 0.076.
